One molecule from PMC5379923 can be followed below.

For orientation: Kd means the concentration at which binding is half-saturated. High values mean a looser complex, low ones a tighter complex.

This experiment deals with monobody L3 E29Q labeled with EDANS at A12C. Description: fluorescence polarisation.

B1: Fluc homologue from Bordetella pertussis, Bpe (natural protein)
chain: MLTYAPLNFIAIGIGATLGAWLRWVLGLRLNGAGWPWGTLTANLVGGYLIGVMVALIASHPEWPAWIRLAAVTGFLGGLTTFSTFSAETVDMLERGVYATAAAYAGASLAGSLAMTGLGLATVRLLLR
Consider B1, for which the Kd amounted to 150 nM.
